Changes are numbered by the printed parent chain. Names may count otherwise.
B1: h317 variant antibody, heavy chain D33S (antibody, V domains shown)
VH: EVQLVESGGGLVKPGGSLRLSCAASGFTFSSYSMSWVRQAPGKGLEWVATISGGGSYTYYPDSVKGRFTISRDNAKNSLYLQMNSLRAEDTAVYYCASPDSSGVAYWGQGTLVTVSS
VL: DIVMTQSPLSLPVTPGEPASITCKASQDVETVVAWYLQKPGQSPRLLIYWASTRHTGVPDRFSGSGSGTDFTLKISRVEAEDVGVYYCQQYSRYPWTFGQGTKL
notes: Variant of h317
B2: h317 variant antibody, heavy chain D33S and G54S (antibody, V domains shown)
VH: B1 VH with G54S
VL: B1 VL
notes: Variant of h317; also called 33S(CDR1) 54S(CDR2)
B3: h317 variant antibody, heavy chain S101A (antibody, V domains shown)
VH: B1 VH with S33D, S101A
VL: B1 VL
notes: Variant of h317
B4: h317 variant antibody, heavy chain S31D (antibody, V domains shown)
VH: B1 VH with S31D, S33D
VL: B1 VL
notes: Variant of h317
B5: h317 variant antibody, heavy chain S52W (antibody, V domains shown)
VH: B1 VH with S33D, S52W
VL: B1 VL
notes: Variant of h317
B6: h317 variant antibody, heavy chain G53S (antibody, V domains shown)
VH: B1 VH with S33D, G53S
VL: B1 VL
notes: Variant of h317
B7: h317 variant antibody, heavy chain G54S (antibody, V domains shown)
VH: B1 VH with S33D, G54S
VL: B1 VL
notes: Variant of h317
B8: h317 variant antibody, heavy chain G54S and Y59A (antibody, V domains shown)
VH: B1 VH with S33D, G54S, Y59A
VL: B1 VL
notes: Variant of h317; also called 54S(CDR2) 59A(CDR2)
B9: h317 variant antibody, heavy chain D33Y (antibody, V domains shown)
VH: B1 VH with S33Y
VL: B1 VL
notes: Variant of h317
B10: h317 variant antibody, heavy chain S56G (antibody, V domains shown)
VH: B1 VH with S33D, S56G
VL: B1 VL
notes: Variant of h317
B11: h317 variant antibody, heavy chain Y32N (antibody, V domains shown)
VH: B1 VH with Y32N, S33D
VL: B1 VL
notes: Variant of h317
B12: h317 variant antibody, heavy chain G53Y (antibody, V domains shown)
VH: B1 VH with S33D, G53Y
VL: B1 VL
notes: Variant of h317
B13: h317 variant antibody, heavy chain D33S and Y59A (antibody, V domains shown)
VH: B1 VH with Y59A
VL: B1 VL
notes: Variant of h317; also called 33S(CDRH 59A(CDR2))
B14: h317 variant antibody, heavy chain D100Y (antibody, V domains shown)
VH: B1 VH with S33D, D100Y
VL: B1 VL
notes: Variant of h317
B15: h317 variant antibody, heavy chain S52K (antibody, V domains shown)
VH: B1 VH with S33D, S52K
VL: B1 VL
notes: Variant of h317
B16: h317 variant antibody, heavy chain Y32A (antibody, V domains shown)
VH: B1 VH with Y32A, S33D
VL: B1 VL
notes: Variant of h317
B17: h317 variant antibody, heavy chain D100E (antibody, V domains shown)
VH: B1 VH with S33D, D100E
VL: B1 VL
notes: Variant of h317
B18: h317 variant antibody, heavy chain G55S (antibody, V domains shown)
VH: B1 VH with S33D, G55S
VL: B1 VL
notes: Variant of h317
B19: h317 variant antibody, heavy chain G54D (antibody, V domains shown)
VH: B1 VH with S33D, G54D
VL: B1 VL
notes: Variant of h317

Target: T1, recombinant human PD-1 protein (NCBI accession No.: NP_005009.2, 21aa-167aa) (human, UniProt Q15116 21-167)
T1 construct: range 21-167; also called recombinant human PD-1 extracellular domain protein; PD-1-ECD
T1 sequence (Q15116 21-167 limits assumed, form in doubt): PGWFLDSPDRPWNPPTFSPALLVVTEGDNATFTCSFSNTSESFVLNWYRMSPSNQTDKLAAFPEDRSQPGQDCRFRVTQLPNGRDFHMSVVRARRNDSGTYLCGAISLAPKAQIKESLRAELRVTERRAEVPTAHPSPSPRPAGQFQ
Assay: BLI Octet QKe, antibody on the sensor, single 100 nM PD-1
Method: Determination of the binding kinetics: the affinity of the antibody was determined with Octet QKe system from Fortebio using an assay of capturing biotin-labeled antibody with streptavidin. […] Both the binding and dissociating were conducted for 300 s.
The comparison of affinity between the variant antibodies and the parent antibody was performed using Octet QKe system supplied by Fortebio.

Row | Kd | Binder
1 | 2.89 nM | B1
2 | 3.12 nM | B2
3 | 16.3 nM | B3
4 | 5.12 nM | B4
5 | 39.4 nM | B5
6 | 5.53 nM | B6
7 | 1.32 nM | B7
8 | 2.68 nM | B8
9 | 236 nM | B9
10 | 148 nM | B10
11 | 18.1 nM | B11
12 | 10.3 nM | B12
13 | 3.96 nM | B13
14 | 8.23 nM | B14
15 | 27.2 nM | B15
16 | 6.83 nM | B16
17 | 74.4 nM | B17
18 | 9.09 nM | B18
19 | 29.3 nM | B19

Source: US20230104769A1 (MABWELL SHANGHAI BIOSCIENCE, published 2023)
